Laboratory results published in the supplement of paper PMC10126150.
± gives the standard deviation of the averaged measurements.

tested on: ATP; assay: switch fluorescence ratio, 500 uM ATP over buffer (Cy3 cluster intensity, sum of 5 cycles each) (fold (ratio)); higher = stronger signal-on switching upon ATP binding; sequences stand for … in TCGTCGGCAGCGTCAGATGTGTATAAGAGACAGTTTTTTTTTTTTTTTTTTTTTTTTT…TC; details: aptamer strand: ATP DNA aptamer (quencher-CACCTGGGGGAGTATTGCGGAGGAAGG + anchor), 100 nM annealed; ATP concentration: 500 uM
Summary of the method: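 For every switch-domain sequence, the fluorescence ratio is the mean of per-cluster values, each being summed target-cycle Cy3 intensity over summed buffer-cycle Cy3 intensity. Clusters outside 100-1000 RFU were excluded. On a modified Illumina MiSeq flow-cell, the Cy3-labelled switching-strand clusters were annealed to 100 nM quencher-labelled ATP aptamer, imaged in selection buffer and then after 15 min with 500 uM ATP at 22 °C. Five such cycles were run, with NaOH stripping and re-annealing between them.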
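Also: ATP exposure 15 min at 22 °C before imaging.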

CAGTTAGACA and CAGTTATGAC are within error of each other in switch fluorescence ratio: 0.99 ± 0.081 for the first, 0.987 ± 0.011 for the second.

Going from CAGTTCACCT to CAGTTCGTTT, the switch fluorescence ratio falls from 1.082 ± 0.0063 to 0.9845 ± 0.0063.

CAGTTGGGAC and CAGTTGTGTG are within error of each other in switch fluorescence ratio: 1 ± 0.054 for the first, 0.994 ± 0.034 for the second.

CAGTTGTTTT and CAGTTTAATG are within error of each other in switch fluorescence ratio: 1.02 ± 0.034 for the first, 1.014 ± 0.0015 for the second.

Compared with CAGTTTAGCT, CAGTTTGTGG is lower in switch fluorescence ratio: 1.02 ± 0.015 for the first, 0.9917 ± 0.0018 for the second.

First: CAGTTTGTTG
Second: CAGTTTTACA
The switch fluorescence ratio of the first is lower: 0.973 ± 0.037 for the first, 1.05 ± 0.016 for the second.

Compared with CATAAAAACT, CATAAGGGGA is lower in switch fluorescence ratio: 1.06 ± 0.017 for the first, 0.994 ± 0.038 for the second.

Compared with CATACAAGGG, CATACAATGC is higher in switch fluorescence ratio: 1.019 ± 0.0029 for the first, 2.02 ± 0.11 for the second.

CATACACATT and CATACCCTTG are within error of each other in switch fluorescence ratio: 1.06 ± 0.048 for the first, 1.01 ± 0.037 for the second.

CATACGAAGT and CATACGGGTA are within error of each other in switch fluorescence ratio: 1.02 ± 0.068 for the first, 1.042 ± 0.00018 for the second.

First: CATACTAACG
Second: CATAGATGGA
The switch fluorescence ratio of the first is higher: 1.33 ± 0.062 for the first, 1.03 ± 0.036 for the second.

Going from CATAGATGGG to CATAGCAAGG, the switch fluorescence ratio rises from 1.01 ± 0.015 to 1.66 ± 0.099.

CATAGGAACG and CATAGGATGG are within error of each other in switch fluorescence ratio: 0.955 ± 0.045 for the first, 0.947 ± 0.025 for the second.

CATAGGGGAC and CATAGGGGTA are within error of each other in switch fluorescence ratio: 0.978 ± 0.066 for the first, 1.01 ± 0.04 for the second.

CATAGGGTTT and CATAGGTACA are within error of each other in switch fluorescence ratio: 1.04 ± 0.047 for the first, 1.089 ± 0.0035 for the second.

CATAGGTCGG and CATAGGTTAT are within error of each other in switch fluorescence ratio: 0.974 ± 0.021 for the first, 0.993 ± 0.048 for the second.

Compared with CATATACATT, CATATATTCT is lower in switch fluorescence ratio: 1.056 ± 0.0039 for the first, 0.977 ± 0.033 for the second.

Going from CATATGATCG to CATATGGCTT, the switch fluorescence ratio rises from 0.961 ± 0.025 to 1.02 ± 0.023.

CATATGGGGA and CATATTGAAT are within error of each other in switch fluorescence ratio: 0.982 ± 0.011 for the first, 1.01 ± 0.02 for the second.

CATATTGGGA and CATCAAAAAT are within error of each other in switch fluorescence ratio: 0.996 ± 0.032 for the first, 1.29 ± 0.3 for the second.

CATCAAGGGA and CATCAGTTGA are the same in switch fluorescence ratio: 1.02 ± 0.045 for the first, 1.02 ± 0.018 for the second.

First: CATCCACGTA
Second: CATCCTTGGA
The switch fluorescence ratio of the first is higher: 1.2 ± 0.083 for the first, 0.996 ± 0.012 for the second.

CATCGAGGAC and CATCGATTGC are within error of each other in switch fluorescence ratio: 1.06 ± 0.072 for the first, 1.03 ± 0.013 for the second.

CATCGGAGGA and CATCGGGGGG are within error of each other in switch fluorescence ratio: 1.02 ± 0.025 for the first, 1 ± 0.02 for the second.

CATCGGTATA and CATCTAAGGC are within error of each other in switch fluorescence ratio: 1.06 ± 0.017 for the first, 1.07 ± 0.049 for the second.

Going from CATCTAGTGC to CATCTATGGT, the switch fluorescence ratio falls from 1.045 ± 0.0031 to 0.992 ± 0.01.

Compared with CATCTCCGGT, CATCTGATGC is lower in switch fluorescence ratio: 1.13 ± 0.0087 for the first, 1.08 ± 0.015 for the second.

First: CATCTGATTA
Second: CATCTTAGCT
The switch fluorescence ratio of the first is lower: 0.98832 ± 0.00039 for the first, 1.035 ± 0.0054 for the second.

CATCTTTGAA and CATGAAAGAC are the same in switch fluorescence ratio: 1.05 ± 0.017 for the first, 1.05 ± 0.041 for the second.

CATGATAGTT and CATGATTGCG are within error of each other in switch fluorescence ratio: 0.997 ± 0.017 for the first, 0.985 ± 0.024 for the second.

Going from CATGATTTGA to CATGCCATCC, the switch fluorescence ratio rises from 1.011 ± 0.0092 to 1.16 ± 0.051.

CATGCCGGGA and CATGCGTCGA are within error of each other in switch fluorescence ratio: 1.22 ± 0.38 for the first, 1.044 ± 0.0035 for the second.

First: CATGCTTGGT
Second: CATGGAGGGG
The switch fluorescence ratio of the first is higher: 1.013 ± 0.00025 for the first, 0.9617 ± 0.0061 for the second.

CATGGATACA and CATGGATAGG are within error of each other in switch fluorescence ratio: 0.978 ± 0.052 for the first, 1.011 ± 0.008 for the second.

Going from CATGGCCACC to CATGGCTAGT, the switch fluorescence ratio falls from 1.015 ± 0.0078 to 1 ± 0.011.

Compared with CATGGGAAGA, CATGGGATGC is higher in switch fluorescence ratio: 0.9755 ± 0.004 for the first, 1.08 ± 0.1 for the second.

CATGGGTCCT and CATGGGTGTG are within error of each other in switch fluorescence ratio: 1.04 ± 0.033 for the first, 0.993 ± 0.042 for the second.

CATGGTAGAG and CATGGTGCCC are within error of each other in switch fluorescence ratio: 0.975 ± 0.034 for the first, 1.03 ± 0.026 for the second.

Going from CATGGTGGCG to CATGGTGGGA, the switch fluorescence ratio falls from 1.01 ± 0.022 to 0.969 ± 0.017.

CATGTAACGC and CATGTAATTT are within error of each other in switch fluorescence ratio: 1.04 ± 0.066 for the first, 0.966 ± 0.034 for the second.

CATGTAGCCG and CATGTATGCT are within error of each other in switch fluorescence ratio: 1.01 ± 0.061 for the first, 1 ± 0.014 for the second.

CATGTATTTT and CATGTCAGGA are within error of each other in switch fluorescence ratio: 0.991 ± 0.041 for the first, 1.02 ± 0.018 for the second.

Going from CATGTCTGTA to CATGTGATTA, the switch fluorescence ratio rises from 1 to 1.007 ± 0.01.

CATGTGGCGG and CATGTGGGTG are within error of each other in switch fluorescence ratio: 0.995 ± 0.0016 for the first, 1 ± 0.047 for the second.

Going from CATGTGTGAG to CATGTGTGGT, the switch fluorescence ratio rises from 0.949 ± 0.026 to 1.004 ± 0.0078.

CATGTGTTGC and CATGTTAGTC are within error of each other in switch fluorescence ratio: 0.987 ± 0.012 for the first, 1.01 ± 0.012 for the second.

CATGTTATCC and CATGTTGGTA are within error of each other in switch fluorescence ratio: 1.01 ± 0.034 for the first, 0.9946 ± 0.0076 for the second.

CATGTTTCTG and CATGTTTTGG are within error of each other in switch fluorescence ratio: 0.9927 ± 0.0078 for the first, 0.9836 ± 0.0043 for the second.

CATGTTTTTG and CATTAAAGAT are within error of each other in switch fluorescence ratio: 1 ± 0.025 for the first, 1.01 ± 0.077 for the second.

CATTAAAGCC and CATTAGAGGT are within error of each other in switch fluorescence ratio: 0.968 ± 0.025 for the first, 0.995 ± 0.014 for the second.
